Four molecules from patent publication US20080199496A1 can be followed below.

In data set [1] the target is recombinant protein LmPDI-(His)6 produced in E. coli (Leishmania major). The data set is described as follows: cell-based or functional assay.
Data set [2] addresses T1, scrambled RNase A (reduced and denatured ribonuclease A), P61823.
T1 chain: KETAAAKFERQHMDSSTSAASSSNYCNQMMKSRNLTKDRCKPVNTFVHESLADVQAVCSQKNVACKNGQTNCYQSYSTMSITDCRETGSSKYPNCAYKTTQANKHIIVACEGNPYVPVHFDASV

Take zinc bacitracin (peptide): in data set [1], the inhibition of LmPDI activity (scrambled RNase A reactivation test) amounted to 2 mM, the inhibition of rLmPDI activity (scrambled RNase reactivation) (% inhibition at 0.1 mM) is 50, the inhibition of rLmPDI activity (scrambled RNase reactivation) (% inhibition at 0.5 mM) is 70 and the inhibition of rLmPDI activity (scrambled RNase reactivation) (% inhibition at 2 mM) amounted to 100.
For bacitracin (peptide), in that order: 2 mM, 50, 70 and 100.

B1: recombinant protein LmPDI-(His)6 produced in E. coli (protein)
chain: RESTAESLKLTKENFNETIAKSEIFLVKFYVDTCGYCQMLAPEWEKAANETIDNALMGEVDCHSQPELAANFSIRGYPTIILFRNGKEAEHYGGARTKDDIIKYIKANVGPAVTPASNAEEVTRAKEEHDVVCVGLTANNSTSLSTTLAEAAQSFRVSLKFFEAEPKLFPDEKPETIVVYRKGGEKEVYDGPMEVEKLTEFLQISRVAFGGEITPENYQYYSVIKRPVGWAMVKPNETASIELKESLTEVGKKMRSHMVVLWVNISKHPVWRDFGVPEDAKYPAFLAIHWGANYLHSTAEVVTRESLEKFILEFAAGRVEPTIKSLPVPEVETVDGKTTIVAKTMQKHLTSGKDMLILFFAPWCGHCKNFAPTFDKIAKEFDATDLIVAELDATANYVNSSTFTVTAFPTVFFVPNGGKPVVFEGERSFENVYEFVRKHVTTFKVSEKPANVTEEKKSEEENKSSKSNESNDSNESNVDKQDL
Turning to B1, in data set [2], the “reactivation of scrambled RNase A (RNase A activity at 296 nm)” value was “LmPDI is capable of restoring RNase A activity in a similar manner to that of bovine PDI”.

B2: bovine protein disulfide-isomerase (protein)
chain: APDEEDHVLVLHKGNFDEALAAHKYLLVEFYAPWCGHCKALAPEYAKAAGKLKAEGSEIRLAKVDATEESDLAQQYGVRGYPTIKFFKNGDTASPKEYTAGREADDIVNWLKKRTGPAASTLSDGAAAEALVESSEVAVIGFFKDMESDSAKQFFLAAEVIDDIPFGITSNSDVFSKYQLDKDGVVLFKKFDEGRNNFEGEVTKEKLLDFIKHNQLPLVIEFTEQTAPKIFGGEIKTHILLFLPKSVSDYEGKLSNFKKAAESFKGKILFIFIDSDHTDNQRILEFFGLKKEECPAVRLITLEEEMTKYKPESDELTAEKITEFCHRFLEGKIKPHLMSQELPDDWDKQPVKVLVGKNFEEVAFDEKKNVFVEFYAPWCGHCKQLAPIWDKLGETYKDHENIVIAKMDSTANEVEAVKVHSFPTLKFFPASADRTVIDYNGERTLDGFKKFLESGGQDGAGDDDDLEDLEEAEEPDLEEDDDQKAVKDEL
Take B2: the “reactivation of scrambled RNase A (RNase A activity at 296 nm)” value in data set [2] is listed as “LmPDI is capable of restoring RNase A activity in a similar manner to that of bovine PDI, used as a control”.
